From patent US20230052369A1 (Zymeworks, published 2023) come the findings set out here.

Numbering of substitutions follows the chain as printed.

The chains are these.
B1: v28688 (antibody, human IgG1, kappa, L234A L235A, V domains shown)
VH: EVQLVESGGGLVQPGGSLRLSCAASGFTFSEFGMHWVRQAPGKGLEWVAYISSGGSTIYYADSVKGRFTISRDNAKNSLYLQMNSLRAEDTAVYYCARDWVDYWGQGTLLTVSS
VL: EIVLTQSPATLSLSPGERATLSCKASENVGSYVSWYQQKPGQAPRLLIYGASNRYTGVPARFSGSGSGTDFTLTISSLEPEDFAVYYCGQSYSYPLTFGGGTKVEIKR
notes: also called humanized 1G1 H2L2
B2: v28685 (antibody, human IgG1, kappa, L234A L235A, V domains shown)
VH: B1 VH with A49S, L110V
VL: B1 VL with L4M, A19V, L78V, V104L, I106L
notes: also called humanized 1G1 H1L3
B3: v28690 (antibody, human IgG1, kappa, L234A L235A, V domains shown)
VH: B1 VH
VL: B1 VL with L4M, A19V, L78V, F83L, V104L, I106L
notes: also called humanized 1G1 H2L4
B4: v28686 (antibody, human IgG1, kappa, L234A L235A, V domains shown)
VH: B1 VH with A49S, L110V
VL: B1 VL with L4M, A19V, L78V, F83L, V104L, I106L
notes: also called humanized 1G1 H1L4
B5: v28689 (antibody, human IgG1, kappa, L234A L235A, V domains shown)
VH: B1 VH
VL: B1 VL with L4M, A19V, L78V, V104L, I106L
notes: also called humanized 1G1 H2L3
B6: v28694 (antibody, human IgG1, kappa, L234A L235A, V domains shown)
VH: B1 VH with V93M
VL: B1 VL with L4M, A19V, L78V, F83L, V104L, I106L
notes: also called humanized 1G1 H3L4
B7: v28693 (antibody, human IgG1, kappa, L234A L235A, V domains shown)
VH: B1 VH with V93M
VL: B1 VL with L4M, A19V, L78V, V104L, I106L
notes: also called humanized 1G1 H3L3
B8: v28684 (antibody, human IgG1, kappa, L234A L235A, V domains shown)
VH: B1 VH with A49S, L110V
VL: B1 VL
notes: also called humanized 1G1 H1L2
B9: v28691 (antibody, human IgG1, kappa, L234A L235A, V domains shown)
VH: B1 VH with V93M
VL: B1 VL with V58I
notes: also called humanized 1G1 H3L1
B10: v28692 (antibody, human IgG1, kappa, L234A L235A, V domains shown)
VH: B1 VH with V93M
VL: B1 VL
notes: also called humanized 1G1 H3L2
B11: v28687 (antibody, human IgG1, kappa, L234A L235A, V domains shown)
VH: B1 VH
VL: B1 VL with V58I
notes: also called humanized 1G1 H2L1
B12: v28683 (antibody, human IgG1, kappa, L234A L235A, V domains shown)
VH: B1 VH with A49S, L110V
VL: B1 VL with V58I
notes: also called humanized 1G1 H1L1
B13: v28705 (antibody, human IgG1, kappa, L234A L235A, V domains shown)
VH: QVQLQESGPGLVKPSETLSITCTVSGFSLISYGVHWVRQPPGKGLEWLGVIWSGGSTDYNPSLKSRVTISKDTSKNQVSFKLSSLTAADTAIYYCARNPLTATVMDYWGQGTLVTVSS
VL: DIQMTQSPSSLSASVGDRVTVTCRASQNVGTNVAWYQQKPGKAPKALIYSASYRDSGVPSRFSGSGSGTDFTLTISSVQPEDFATYYCQQYNSYPLTFGGGTKLEIKR
notes: also called humanized 5G8 H3L3
B14: v28701 (antibody, human IgG1, kappa, L234A L235A, V domains shown)
VH: B13 VH with I20L, V78F, F80L, L85V, I92V
VL: B13 VL
notes: also called humanized 5G8 H2L3
B15: v28698 (antibody, human IgG1, kappa, L234A L235A, V domains shown)
VH: B13 VH with I20L, V37I, L48I, K71V, V78F, F80L, L85V, I92V
VL: B13 VL with F83L
notes: also called humanized 5G8 H1L4
B16: v28696 (antibody, human IgG1, kappa, L234A L235A, V domains shown)
VH: B13 VH with I20L, V37I, L48I, K71V, V78F, F80L, L85V, I92V
VL: B13 VL with V21I, V78L, L104V
notes: also called humanized 5G8 H1L2
B17: v28702 (antibody, human IgG1, kappa, L234A L235A, V domains shown)
VH: B13 VH with I20L, V78F, F80L, L85V, I92V
VL: B13 VL with F83L
notes: also called humanized 5G8 H2L4
B18: v28700 (antibody, human IgG1, kappa, L234A L235A, V domains shown)
VH: B13 VH with I20L, V78F, F80L, L85V, I92V
VL: B13 VL with V21I, V78L, L104V
notes: also called humanized 5G8 H2L2
B19: v28697 (antibody, human IgG1, kappa, L234A L235A, V domains shown)
VH: B13 VH with I20L, V37I, L48I, K71V, V78F, F80L, L85V, I92V
VL: B13 VL
notes: also called humanized 5G8 H1L3
B20: v28726 (antibody, human IgG1, kappa, L234A L235A, V domains shown)
VH: EVQLVESGGGLIQPGGSLRLSCAVSGFSLTTYAISWVRQAPGKGLEWLGIIWPGGGTNYADSVKGRFTISKDNSKNTLYLQMNSLRAEDTAVYYCARGAGTWYFDVWGQGTLVTVSS
VL: DIQMTQSPSSLSASVGDRVTITCSASQGISNYLNWYQQKPGKTVKLLIYYTSSLHSGVPSRFSGSGSGTDYTLTISSLQPEDIATYYCQQYSKFPWTFGQGTKLEIKR
notes: also called humanized 1C8 H7L3
B21: v28728 (antibody, human IgG1, kappa, L234A L235A, V domains shown)
VH: B20 VH with L20I, V63L, F67L, L78V, A87T
VL: B20 VL with T43A, V44P
notes: also called humanized 1C8 H8L2
B22: v28730 (antibody, human IgG1, kappa, L234A L235A, V domains shown)
VH: B20 VH with L20I, V63L, F67L, L78V, A87T
VL: B20 VL
notes: also called humanized 1C8 H8L3
B23: v28727 (antibody, human IgG1, kappa, L234A L235A, V domains shown)
VH: B20 VH with L20I, V63L, F67L, L78V, A87T
VL: B20 VL with T43A, V44P, Y71F, L73F, L104V
notes: also called humanized 1C8 H8L1

One test deals with T1, purified human monomeric 4-1BB (human, UniProt Q07011 24-186).
T1 construct: the assay used the 4-1BB part released by Factor Xa with the Fc removed; also called h4-1BB; human 4-1BB
T1 sequence (Q07011 other isoform, or with tags, fused parts or gaps limits assumed): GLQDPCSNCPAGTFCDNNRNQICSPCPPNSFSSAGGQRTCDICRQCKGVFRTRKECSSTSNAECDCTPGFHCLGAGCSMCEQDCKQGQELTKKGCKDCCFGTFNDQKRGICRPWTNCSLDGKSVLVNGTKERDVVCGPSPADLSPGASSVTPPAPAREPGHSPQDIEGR
The test is described as follows: SPR, mean n=3.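 Also: antibodies captured on anti-human Fc chip, 4-1BB injected as five-point two-fold series from 40 nM by single-cycle kinetics at 25 °C, sensorgrams fitted to 1:1 Langmuir model.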
As usually defined, the Kd is the concentration at which binding is half-saturated. A lower Kd goes with tighter binding. Take B1: the equilibrium dissociation constant (Kd) is 69.2 nM. Still for that read-out and setting: the value for B2 was 31.2 nM. Same read-out and setting: to B3 belongs 34.4 nM; to B4, 31.1 nM; to B5, 58.3 nM. B6 came in with an equilibrium dissociation constant (Kd) of 34.7 nM. Still for that read-out and setting: to B7 belongs 36.2 nM. Regarding B8, the affinity, expressed as Kd, was 38.5 nM. For the molecule B9, the dissociation constant (Kd) was 54.2 nM. The Kd values of the last two molecules are within 1.5-fold of each other. The same measure, in the same setting: the value for B10 was 46.4 nM. Consider B11, for which the affinity, expressed as Kd, was 40.3 nM. For B12, binding was characterised by a dissociation constant (Kd) of 42.3 nM. Still for that read-out and setting: the value for B13 was 195 nM; that for B14 was 610 nM. On the same count and under the same terms, the value for B15 was 1110 nM; that for B16 was 574 nM. On the same count and under the same terms, the value for B17 was 620 nM; that for B18 was 222 nM; that for B19 was 735 nM. Turning to B20, the Kd stood at 763 nM.

The molecule B21 gave a Kd of 1420 nM.

In turn, B22 gave a Kd of 762 nM.

The molecule B23 displayed a dissociation constant (Kd) of 813 nM.

In the next test the target is T2, human 4-1BB, full-length, expressed on cells (human, UniProt Q07011 24-255).
T2 construct: also called CD137; TNFRSF9
T2 sequence (Q07011 24-255): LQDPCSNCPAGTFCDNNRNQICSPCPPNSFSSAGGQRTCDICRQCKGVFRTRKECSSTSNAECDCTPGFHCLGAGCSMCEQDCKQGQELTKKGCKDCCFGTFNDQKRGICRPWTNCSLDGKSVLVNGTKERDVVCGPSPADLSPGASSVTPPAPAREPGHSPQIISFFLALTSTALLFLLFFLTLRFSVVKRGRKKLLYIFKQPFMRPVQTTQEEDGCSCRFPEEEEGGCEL
Nature of the test: flow cytometry, Jurkat-4-1BB. Background: In flow cytometry, cells or beads pass a laser one at a time.
The term EC50 denotes the midpoint of the concentration-response curve. Read a high EC50 as lower potency in that assay. Regarding B1, the concentration giving a half-maximal response (EC50) came out at 0.36 nM.

In turn, B2 registered a half-maximal effective concentration (EC50) of 0.0551 nM. Against the preceding molecule, the EC50 is about 6.5-fold lower.

In turn, B3 had a concentration giving a half-maximal response (EC50) of 0.376 nM. Still for that read-out and setting: the value for B5 was 0.486 nM; that for B6 was 0.455 nM. Still for that read-out and setting: the value for B7 was 0.353 nM; that for B8 was 0.247 nM; that for B9 was 1.44 nM. The same measure, in the same setting: the value for B10 was 0.771 nM; that for B11 was 1 nM; that for B12 was 0.223 nM. Molecule B13 registered an EC50 of 3.32 nM. For the molecule B14, the response was half-maximal at 30 nM (EC50). Consider B15, for which it took 38.3 nM to reach a half-maximal effect (EC50). Still for that read-out and setting: to B17 belongs 55.6 nM; to B18, 56.4 nM. On the same count and under the same terms, to B21 belongs 713 nM. Still for that read-out and setting: the value for B22 was 88.7 nM; that for B23 was 24.2 nM.
